Reference: article PMC9980132 (bioRxiv, 2023)

B1: ASXL1 DEUBAD domain (residues 237-390) (domain or fragment)
chain: PATGQMKRNRGEEIDFETPGSILVNTNLRALINSRTFHALPSHFQQQLLFLLPEVDRQVGTDGLLRLSSSALNNEFFTHAAQSWRERLADGEFTHEMQVRIRQEMEKEKKVEQWKEKFFEDYYGQKLGLTKEESLQQNVGQEEAEIKSGLCVPG

Tests used:
[1] = molecular target: H2AK119Ub nucleosome (non-hydrolyzable, 187 bp Widom 601 DNA) (Xenopus | not stated) (UniProt P0CG48)
[2] = molecular target: T1, BAP1 (full-length human BAP1, residues 1-729) (human, UniProt Q92560 1-729); test: cryo-EM structure
T1 sequence: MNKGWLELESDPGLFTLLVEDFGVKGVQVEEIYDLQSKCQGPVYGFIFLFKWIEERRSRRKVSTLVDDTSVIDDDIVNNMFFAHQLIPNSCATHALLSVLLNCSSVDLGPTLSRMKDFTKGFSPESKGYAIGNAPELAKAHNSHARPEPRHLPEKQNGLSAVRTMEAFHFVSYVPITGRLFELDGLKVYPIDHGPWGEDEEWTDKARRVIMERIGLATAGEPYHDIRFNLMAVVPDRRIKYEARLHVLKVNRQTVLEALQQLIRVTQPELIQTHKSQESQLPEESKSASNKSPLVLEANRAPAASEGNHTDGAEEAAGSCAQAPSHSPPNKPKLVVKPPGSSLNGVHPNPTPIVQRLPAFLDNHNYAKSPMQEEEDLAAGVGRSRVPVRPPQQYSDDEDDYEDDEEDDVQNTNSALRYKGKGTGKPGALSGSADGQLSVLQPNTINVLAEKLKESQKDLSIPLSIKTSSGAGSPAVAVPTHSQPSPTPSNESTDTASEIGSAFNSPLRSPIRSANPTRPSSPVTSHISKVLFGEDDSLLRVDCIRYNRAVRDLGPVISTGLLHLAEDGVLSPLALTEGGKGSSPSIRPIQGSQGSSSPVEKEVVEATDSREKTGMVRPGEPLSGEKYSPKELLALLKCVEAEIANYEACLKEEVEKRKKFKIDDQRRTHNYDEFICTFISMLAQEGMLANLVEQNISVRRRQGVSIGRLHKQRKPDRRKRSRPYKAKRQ

H2AK119Ub nucleosome (non-hydrolyzable, 187 bp Widom 601 DNA) (Xenopus | not stated), sequence (P0CG48 whole entry, looked up, the tested form may be a part): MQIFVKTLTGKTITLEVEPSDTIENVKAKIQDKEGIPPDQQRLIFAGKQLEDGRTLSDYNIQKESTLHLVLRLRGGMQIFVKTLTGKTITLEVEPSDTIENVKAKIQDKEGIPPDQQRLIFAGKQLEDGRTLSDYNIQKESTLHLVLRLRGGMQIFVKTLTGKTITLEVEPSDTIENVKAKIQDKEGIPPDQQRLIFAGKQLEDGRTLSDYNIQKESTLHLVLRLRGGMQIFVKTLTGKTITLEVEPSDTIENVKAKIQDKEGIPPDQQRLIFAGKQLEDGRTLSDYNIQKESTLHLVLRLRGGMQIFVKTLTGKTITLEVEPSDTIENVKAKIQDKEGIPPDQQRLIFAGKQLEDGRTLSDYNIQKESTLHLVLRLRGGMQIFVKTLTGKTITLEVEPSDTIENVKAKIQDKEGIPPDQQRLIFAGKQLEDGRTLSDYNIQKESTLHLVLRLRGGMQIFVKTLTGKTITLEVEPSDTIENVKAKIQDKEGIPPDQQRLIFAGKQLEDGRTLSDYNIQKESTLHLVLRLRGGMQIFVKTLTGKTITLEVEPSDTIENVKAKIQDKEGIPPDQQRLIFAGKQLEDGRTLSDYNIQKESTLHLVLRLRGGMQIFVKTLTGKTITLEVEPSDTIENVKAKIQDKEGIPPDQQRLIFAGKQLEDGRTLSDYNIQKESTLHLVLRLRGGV

Row | kcat (turnover number) of deubiquitination of the H2AK119ub1 designer nucleosome [1] | binding result [2] | Molecule
1 | 0.015 s⁻¹ |  | BAP1 R56A/R57A/R59A/R60A in complex with wild-type ASXL1 DEUBAD (from UniProt Q92560;Q8IXJ9)
2 |  | binds | B1
